Measured values as given in article PMC4529466, “Intradermal insulin infusion achieves faster insulin action than subcutaneous infusion for 3-day wear” (Drug Delivery and Translational Research, 2015).

Assay: Safety: adverse events, hypoglycemia, Draize erythema and edema scoring of infusion site
Assay type: in vivo, human (T1DM patients)
Procedure: Safety evaluations comprised of recording/classification of adverse events (including hypoglycemia, BG < 60 mg/dL with or without symptoms), physical examinations, clinical laboratory parameters, vital signs, subjective pain assessments, and assessments of local tissue response at the injection site. Visual observations of the area around the infusion site for skin irritation, insulin leakage, and any notable abnormalities were recorded after each bolus delivery. Upon device removal, the study physician checked the site of insulin administration, as well as 1 and 2 h later, and scored any local reactions according to the Draize erythema and edema scale.
Pharmacokinetic parameters were derived from baseline corrected blood insulin data. The pharmacokinetic and pharmacodynamic populations included all patients with data from either route across 3 days of infusion and patients exposed to at least one trial product with available data respective of PK/PD endpoints. PK and PD endpoints were analyzed using a linear mixed effects model (ANOVA) with sequence, application route, meal, and day as factors along with interactions. The safety population included all patients who had participated in any trial-related activity after randomization. VAS pain data comparisons were made between application routes at each assessment time point using a similar model. Safety evaluations were summarized by descriptive statistics.

## insulin aspart
ID infusion
  hypoglycemic episodes (BG below 60 mg/dL): 67 episodes
  subjects with hypoglycemic episodes: 22 subjects
ID route, within 2 h after set removal on day 3
  instances with Draize erythema score 2: 4/24
SC infusion
  hypoglycemic episodes (BG below 60 mg/dL): 56 episodes
  subjects with hypoglycemic episodes: 18 subjects
Across the study, both routes, majority asymptomatic
  detected hypoglycemic episodes, total: 123 episodes
Both routes, immediately after removal on day 3
  Draize erythema and edema upon removal of infusion set: essentially no detectable erythema or edema
Entire study, both routes, mild to moderate severity, none serious
  adverse events (AEs), total: 31
